Test results as given in the supplement of paper PMC7877785.
± gives the uncertainty stated by the source.

Assay: self-splicing fitness, log relative to wild type (ln ratio); higher = more splicing; Tetrahymena group I intron in knt gene, E. coli kanamycin selection, DiMSum; sequences stand for … in CUCUCU…GGAGGGAAAAGUUAUCAGGCAUGCACCUGGUAGCUAGUCUUUAAACCAAUAGAUUGCAUCGGUUUAAAAGGCAAGACCGUCAAAUUGCGGGAAAGGGGUCAACAGCCGUUCAGUACCAAGUCUCAGGGGAAACUUUGAGAUGGCCUUGCAAAGGGUAUGGUAAUAAGCUGACGGACAUGGUCCUAACCACGCAGCCAAGUCCUAAGUCAACAGAUCUUCUGUUGAUAUGGAUGCAGUUCACAGACUAAAUGUCGGUCGGGGAAGAUGUAUUCUUCUCAUAAGAUAUAGUCGGACCUCUCCUUAAUGGGAGCUAGCGGAUGAAGUGAUGCAACACUGGAGCCGCUGGGAACUAAUUUGUAUGCGAAAGUAUAUUGAUUAGUUUUGGAGUACUCGUGGUCG
Method in brief: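 Colonies from six replicate transformations of E. coli BL21(DE3) were pooled and amplicon-sequenced on an Illumina HiSeq 2500. The library placed an intron with all eight P1ex-region nucleotides randomised inside the knt kanamycin-resistance gene on pET-22b(+), and cells grew overnight at 37°C or 30°C on LB agar with or without 25 μg/mL kanamycin (plus 100 μg/mL carbenicillin, 50 μM IPTG, 0.2% rhamnose). Fitness is the DiMSum error-weighted combination of wild-type-normalised replicate fold changes, kanamycin versus none.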

Row | Sequence | self-splicing fitness (ln) (30 °C) | self-splicing fitness (ln) (37 °C)
1 | GUUAAGCAAUAUUACGCGAC | -3.02 ± 0.21 | -2.15 ± 0.22
2 | UAAGAGCAAUAUUACGCAUU | -2.87 ± 0.22 | -2.32 ± 0.26
3 | AUAAAGCAAUAUUACGAGUC | -3.52 ± 0.13 | -2.07 ± 0.14
4 | UCGGAGCAAUAUUACGGAAG | – | -0.371 ± 0.41
5 | ACGUAGCAAUAUUACGAGGG | -3.91 ± 0.26 | -2.92 ± 0.26
6 | AAGAAGCAAUAUUACGCACU | -0.114 ± 0.063 | -0.103 ± 0.081
7 | CACUAGCAAUAUUACGCCCA | -1.1 ± 0.16 | -1.35 ± 0.27
8 | AGUAAGCAAUAUUACGCCCA | -1.19 ± 0.37 | –
9 | UCGAAGCAAUAUUACGUGUU | -3.56 ± 0.2 | -2.47 ± 0.19
10 | UUUCAGCAAUAUUACGAAUC | -1.94 ± 0.18 | -1.31 ± 0.24
11 | GUAUAGCAAUAUUACGCCCU | -0.766 ± 0.2 | 0.0529 ± 0.26
12 | UCGCAGCAAUAUUACGCAAG | -3.01 ± 0.17 | -1.69 ± 0.25
13 | CCACAGCAAUAUUACGUCAG | -0.817 ± 0.057 | -0.131 ± 0.071
14 | ACCGAGCAAUAUUACGAUAG | -3.12 ± 0.21 | -2.42 ± 0.24
15 | AAAGAGCAAUAUUACGCAGC | – | -2.77 ± 0.41
16 | CCAUAGCAAUAUUACGCAGG | -3.98 ± 0.28 | -3.18 ± 0.35
17 | UACGAGCAAUAUUACGACUU | -2.11 ± 0.13 | -0.959 ± 0.15
18 | GCCGAGCAAUAUUACGACAG | -1.9 ± 0.22 | -2.16 ± 0.23
19 | ACUAAGCAAUAUUACGGAUU | -2.79 ± 0.14 | -1.1 ± 0.11
20 | AAAGAGCAAUAUUACGUUCG | -1.54 ± 0.11 | -0.974 ± 0.15
21 | UGAUAGCAAUAUUACGACCU | -1.09 ± 0.17 | -0.0258 ± 0.18
22 | UAAAAGCAAUAUUACGCAUA | -1.44 ± 0.088 | -0.782 ± 0.1
23 | AUACAGCAAUAUUACGAAUC | -4.08 ± 0.25 | -2.3 ± 0.18
24 | GGCUAGCAAUAUUACGGGCG | -1.34 ± 0.095 | -0.19 ± 0.12
25 | GGUCAGCAAUAUUACGACGG | -0.435 ± 0.14 | -0.175 ± 0.16
26 | GGCGAGCAAUAUUACGAACC | -2.56 ± 0.071 | -1.11 ± 0.085

Row | Sequence | self-splicing fitness (ln) (30 °C) | self-splicing fitness (ln) (37 °C)
27 | CGCGAGCAAUAUUACGAACG | -3.04 ± 0.43 | -2.08 ± 0.32
28 | UUCUAGCAAUAUUACGUAUG | -3 ± 0.17 | -1.8 ± 0.17
29 | AUACAGCAAUAUUACGAUUC | -2.06 ± 0.1 | -0.118 ± 0.096
30 | UAUGAGCAAUAUUACGUCGU | -3.39 ± 0.3 | -2.93 ± 0.32
31 | UGCGAGCAAUAUUACGAUGA | -2.13 ± 0.16 | -1.4 ± 0.13
32 | AAUAAGCAAUAUUACGAACC | -1.33 ± 0.15 | -0.414 ± 0.18
33 | AAGCAGCAAUAUUACGCAAC | -2.62 ± 0.12 | -1.49 ± 0.13
34 | GCAAAGCAAUAUUACGGUGC | -2.45 ± 0.12 | -3.66 ± 0.27
35 | UAGUAGCAAUAUUACGGCGA | -1.17 ± 0.17 | -0.54 ± 0.17
36 | GCACAGCAAUAUUACGGAAC | -1.06 ± 0.086 | -0.752 ± 0.12
37 | UAUCAGCAAUAUUACGCUAG | -0.545 ± 0.1 | -0.149 ± 0.12
38 | AUACAGCAAUAUUACGUCCG | -1.75 ± 0.13 | -1.38 ± 0.17
39 | AAAGAGCAAUAUUACGCUAC | – | -2.81 ± 0.32
40 | UGGUAGCAAUAUUACGGAUU | -3.77 ± 0.4 | -0.91 ± 0.31
41 | UGAGAGCAAUAUUACGGCCG | -3.57 ± 0.43 | -1.38 ± 0.25
42 | ACAUAGCAAUAUUACGCUUU | -2.82 ± 0.16 | -2.53 ± 0.32
43 | ACCUAGCAAUAUUACGCAAU | -2 ± 0.1 | -0.798 ± 0.09
44 | UGAGAGCAAUAUUACGUCUA | -1.4 ± 0.11 | -0.679 ± 0.12
45 | AGACAGCAAUAUUACGUCAA | -1.68 ± 0.1 | -1.35 ± 0.09
46 | GGGAAGCAAUAUUACGUAUA | -2.79 ± 0.15 | -0.738 ± 0.094
47 | AUUGAGCAAUAUUACGUUUC | – | -2.57 ± 0.48
48 | GUAUAGCAAUAUUACGCCCC | -1.21 ± 0.2 | -0.594 ± 0.29
49 | GCUCAGCAAUAUUACGGCCU | -1.6 ± 0.14 | -0.188 ± 0.16
50 | UGUUAGCAAUAUUACGGAUG | -1.89 ± 0.12 | -0.39 ± 0.11
51 | UUGGAGCAAUAUUACGCUUU | -2.75 ± 0.23 | -2.3 ± 0.5
52 | CCACAGCAAUAUUACGGACC | -4.45 ± 0.31 | -1.54 ± 0.22

Row | Sequence | self-splicing fitness (ln) (30 °C) | self-splicing fitness (ln) (37 °C)
53 | UGCCAGCAAUAUUACGGGCU | -2.6 ± 0.19 | -1.61 ± 0.18
54 | AUGGAGCAAUAUUACGAAUU | -3.14 ± 0.47 | -1.14 ± 0.25
55 | AAAUAGCAAUAUUACGCUGC | -2.73 ± 0.2 | -1.86 ± 0.41
56 | AGGGAGCAAUAUUACGUGGG | -3.31 ± 0.2 | –
57 | GGAUAGCAAUAUUACGUGAA | -1.83 ± 0.07 | -1.13 ± 0.081
58 | AUCUAGCAAUAUUACGUAUU | -2.56 ± 0.15 | -2.08 ± 0.19
59 | GCUAAGCAAUAUUACGGCAC | -1.31 ± 0.19 | -0.55 ± 0.2
60 | UCCCAGCAAUAUUACGAUCG | -3.52 ± 0.3 | -2.79 ± 0.16
61 | AAUAAGCAAUAUUACGUAGG | -2.11 ± 0.16 | -0.935 ± 0.17
62 | UAUAAGCAAUAUUACGCUAC | -3.61 ± 0.21 | -1.32 ± 0.17
63 | GUCUAGCAAUAUUACGAUCC | -0.754 ± 0.16 | 0.0678 ± 0.24
64 | UUGAAGCAAUAUUACGGGGG | -2.59 ± 0.17 | -1.9 ± 0.19
65 | GUUUAGCAAUAUUACGCCGG | -2.37 ± 0.45 | –
66 | UUGCAGCAAUAUUACGGCUU | 0.193 ± 0.069 | 0.35 ± 0.095
67 | GUAUAGCAAUAUUACGUCUA | -0.881 ± 0.17 | -1.01 ± 0.18
68 | GUUAAGCAAUAUUACGAGAC | – | -0.662 ± 0.25
69 | UCCGAGCAAUAUUACGACUC | -3.61 ± 0.21 | -2.87 ± 0.34
70 | UCUCAGCAAUAUUACGCCGA | – | -0.855 ± 0.18
71 | GUACAGCAAUAUUACGCUGG | -2.55 ± 0.13 | -0.491 ± 0.12
72 | GGCCAGCAAUAUUACGUAAC | -1.22 ± 0.082 | -1.19 ± 0.073
73 | GAUUAGCAAUAUUACGAUGA | -1.8 ± 0.13 | 0.00201 ± 0.11
74 | CGUGAGCAAUAUUACGCGUA | – | -1.86 ± 0.47
75 | UCUAAGCAAUAUUACGGUCG | -1.34 ± 0.095 | -0.375 ± 0.13
76 | GGUCAGCAAUAUUACGCCUC | -0.643 ± 0.12 | 0.0345 ± 0.14
77 | AAAGAGCAAUAUUACGCUAG | -2.87 ± 0.17 | -2.42 ± 0.27
78 | CAGUAGCAAUAUUACGUGCG | -0.0402 ± 0.068 | 0.239 ± 0.088
